Patent publication US20220403363A1

Assays:
[1] = test system: GlbD second part (from the T domain) without SZ
[2] = test system: GlbD second part (from the T domain) with SZ18
[3] = test system: SYNZIP18-gxpS_A3T3C/E4A4T4TE (protein encoded by plasmid pJW76)
[4] = test system: gxpS_A3T3C/E4A4T4TE without SYNZIP (protein encoded by plasmid pJW83)
[5] = biological target: gxpS_A3T3C/E4A4T4TE without SYNZIP (protein encoded by plasmid pJW83); assay: cell-based or functional assay
[6] = test system: xtpS_T2-TE without SYNZIP (protein encoded by plasmid pNA12)
[7] = test system: T1, SYNZIP18-xtpS_T2C3A3T3C/E4A4T4TE (protein encoded by plasmid pNA5)
T1 sequence: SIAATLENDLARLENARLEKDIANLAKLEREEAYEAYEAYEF

[8] = test system: xtpS_A3T3C/E4A4T4TE without SYNZIP (protein encoded by plasmid pJW64)
[9] = test system: T2, SYNZIP18-xtpS_A3T3C/E4A4T4TE (protein encoded by plasmid pJW62)
T2 sequence: T1 sequence

What does the source list for “GlbD first part (up to the A domain) with SZ17”?
glidobactin A production, negative control without one SZ [1]: In the negative controls without in each case one or both SZs, there is virtually no glidobactin A production; glidobactin A production by the PKS/NRPS hybrid with divided GlbD [2]: leads to a complete synthesis of the glidobactin peptide

For “GlbD first part (up to the A domain) without SZ”, which “glidobactin A production, negative control without both SZs” value [1] is on record?
The value was “In the negative controls without in each case one or both SZs, there is virtually no glidobactin A production”.

What about the “glidobactin A production, negative control without one SZ” value [2] of the same substance?
Its value is “In the negative controls without in each case one or both SZs, there is virtually no glidobactin A production”.

For “ambS_A1T1C/E2A2T2C3-SYNZIP17 (protein encoded by plasmid pJW91)”, which “peptide production by NRPS-3a in E. coli (HPLC-MS), peptides 7, 8 and 9” value [3] is on record?
The value was “The peptides 7, 8 and 9, which eluted at a retention time of 6 min, 7.1 min and 7 min, could be identified on the basis of their mass”.

And the “production of peptide 9 by NRPS-3b (no N-terminal SZ) relative to NRPS-3a (HPLC-MS)” value [4]?
Its value is “peptide 9 to ˜18%”.

And the “production of peptides 7 and 8 by NRPS-3b (no N-terminal SZ) relative to NRPS-3a (HPLC-MS)” value [4]?
Its value is 7 and 8 were only produced to ˜50%.

For “szeS_C1A1T1C/E2A2T2C3-SYNZIP17 (protein encoded by plasmid pJW92)”, which “peptide production by NRPS-4a in E. coli (HPLC-MS), peptides 10 and 11” value [3] is on record?
The value was “Both the mass of 10 and the mass of 11 could be detected in the extracted ion chromatogram (EIC)”.

With “szeS_C1A1T1C/E2A2T2C3-SYNZIP17 (protein encoded by plasmid pJW92) (enzyme)” as the substance, how does the decrease of peptides 10 and 11 in NRPS-4b (no N-terminal SZ) against NRPS-4a (HPLC-MS) [5] read?
Its decrease of peptides 10 and 11 in NRPS-4b (no N-terminal SZ) against NRPS-4a (HPLC-MS) is 80 % decrease.

Which “peptide production by NRPS-5a in E. coli (HPLC-MS)” value [3] does the source give for “xldS_C1A1T1C/E2A2T2C3-SYNZIP17 (protein encoded by plasmid pJW93)” here?
Its value is “showed the production of most expected derivatives”.

And the “peptide production by NRPS-5b (negative control without SZ18) against NRPS-5a (HPLC-MS)” value [4]?
Its value is “the negative control (NRPS-5b) showed no significant difference in peptide production from the NRPS-5a construct”.

How did the “decrease in productivity of NRPS-14d compared to NRPS-14a (told of the controls overall)” value [6] turn out when “xtpS_A1T1C/E2A2 without SYNZIP (protein encoded by plasmid pNA11)” was run?
Its value is “Overall, the controls showed a decrease in productivity of 90% compared to NRPS-14a”.

And the “production of peptides 2 and 1 by NRPS-14d (no SZs), % of WT level (HPLC-MS)” value [6]?
Its value is “showed a very low production of the cyclic product 2 and absolutely no production of the linear peptide 1 at ˜3-10% of the WT level”.

What about the “decrease in productivity of NRPS-14c compared to NRPS-14a (told of the controls overall)” value [7] of the same substance?
The value was “Overall, the controls showed a decrease in productivity of 90% compared to NRPS-14a”.

What about the “production of peptides 2 and 1 by NRPS-14c (no C-terminal SZ), % of WT level (HPLC-MS)” value [7] of the same substance?
The value was “showed a very low production of the cyclic product 2 and absolutely no production of the linear peptide 1 at ˜3-10% of the WT level”.

“xtpS_A1T1C/E2A2T2C3 without SYNZIP (protein encoded by plasmid pJW63)” was tested. Which “peptide production by NRPS-16d (no SZs) (HPLC-MS)” value [8] did it give?
The value was “showed no peptide production for control experiments NRPS-16b and NRPS-16d”.

What about the “decrease in production of cyclic peptide 2 by NRPS-16c in relation to NRPS-16a (both SZs)” value [9] of the same substance?
The value was “control NRPS-16c shows a decrease in the production of cyclic peptide 2 by 80%”.

What about the “production of peptide 2 by NRPS-16c (no C-terminal SZ), % of WT level (HPLC-MS)” value [9] of the same substance?
Its value is “NRPS-16c showed only a very low production of 2 with 3.2% of the WT level”.

Which results are given for “xtpS_A1T1C/E2A2T2C3-GS(4)-SYNZIP17 (protein encoded by plasmid pNA10)”?
increase in productivity for cyclic peptide 2 against the construct without linker (average over NRPS-15b, -15c, -15d) [9]: an average increase in productivity of ˜37% for cyclic 2 and ˜26% for linear peptide 1; increase in productivity for linear peptide 1 against the construct without linker (average over NRPS-15b, -15c, -15d) [9]: an average increase in productivity of ˜37% for cyclic 2 and ˜26% for linear peptide 1; production of cyclic product 2 by NRPS-15d (4 AS GS linker) (HPLC-MS) [9]: the cyclic product 2 with almost WT level was produced for all constructions with GS linker

What does the source list for “xtpS_A1T1C/E2A2T2C3-GS(8)-SYNZIP17 (protein encoded by plasmid pNA9)”?
increase in productivity for cyclic peptide 2 against the construct without linker (average over NRPS-15b, -15c, -15d) [9]: an average increase in productivity of ˜37% for cyclic 2 and ˜26% for linear peptide 1; increase in productivity for linear peptide 1 against the construct without linker (average over NRPS-15b, -15c, -15d) [9]: an average increase in productivity of ˜37% for cyclic 2 and ˜26% for linear peptide 1; production of cyclic product 2 by NRPS-15c (8 AS GS linker) (HPLC-MS) [9]: the cyclic product 2 with almost WT level was produced for all constructions with GS linker

What does the source list for “xtpS_A1T1C/E2A2T2C3-GS(10)-SYNZIP17 (protein encoded by plasmid pNA8)”?
increase in productivity for cyclic peptide 2 against the construct without linker (average over NRPS-15b, -15c, -15d) [9]: an average increase in productivity of ˜37% for cyclic 2 and ˜26% for linear peptide 1; increase in productivity for linear peptide 1 against the construct without linker (average over NRPS-15b, -15c, -15d) [9]: an average increase in productivity of ˜37% for cyclic 2 and ˜26% for linear peptide 1; production of cyclic product 2 by NRPS-15b (10 AS GS linker) (HPLC-MS) [9]: the cyclic product 2 with almost WT level was produced for all constructions with GS linker

What does the source list for “xtpS_A1T1C/E2A2T2C3-SYNZIP19 (protein encoded by plasmid pNA1)”?
peptide production by NRPS-16b (no N-terminal SZ) (HPLC-MS) [8]: showed no peptide production for control experiments NRPS-16b and NRPS-16d; production of cyclic peptide 2 by NRPS-16 (C-A split, SZ19/18) relative to WT XtpS (HPLC-MS) [9]: 13% (NRPS-16); production of linear peptide 1 by NRPS-16 (HPLC-MS) [9]: NRPS-16 showed no production of 1
